Data from patent US20230330143A1 (GAMMADELTA THERAPEUTICS, published 2023).
Residue numbers refer to the chain shown, from its start.

B1: 1252_P01_C08 (antibody, V domains shown)
VH: EVQLLESGGGLVQPGRSLRLSCAASGFTVSSNYMSWVRQAPGKGLEWVSVIYSGGSTYYADSVKGRFTISRDNSKNTLYLQMNSLRAEDTAVYYCASPIELGAFDIWGQGTLVTVSS
VL: SSYELTQPPSVSVAPGKTARITCGGNNIGSQSVHWYQQKPGQAPMLVIYYDSDRPSGIPERFSGSNSGNTATLTISRVEAGDEADYYCQVWDSSSDHVVFGGGTKLTVL
notes: Anti-Vδ1 antibody with a lambda light chain
B2: 1245_P02_G04 (antibody, V domains shown)
VH: QVQLQQSGPGLVKPSQTLSLTCAISGDSVSSKSAAWNWIRQSPSRGLEWLGRTYYRSKWSTDYAASVKSRITINPDTSKNQLSLQLNSVTPEDTAVYYCARTWSGYVDVWGQGTLVTVSS
VL: DIQMTQSPPALSASVGDRVTITCRASQDINDWLAWYQHKPGKAPKLLIYDASSLESGVPSRFSGSGSGTEFTLTISSLQPDDFATYYCQQSYSTPQVTFGQGTRLEIK
B3: 1139_P01_E04 (antibody, V domains shown)
VH: QVQLQQSGPGLVKPSQTLSLTCAISGDSVSSNSAAWNWIRQSPSRGLEWLGRTYYRSKWYNDYAVSVRSRITINPDTSKNQFSLQLNSVTPEDTAVYYCARSWNDAFDIWGQGTTVTVSS
VL: DIVMTQSPSTLSASIGDRVTITCRAGQSISTWLAWYQQKPGKAPKLLIYDASSLESGVPLRFSGSGSGTDFTLTISSLQPEDFATYYCQQSYSTPLTFGGGTKVEIK
B4: 1245_P01_G06 (antibody, V domains shown)
VH: QVQLVESGGGLVKPGGSLRLSCAASGFTFSDYYMSWIRQAPGKGLEWVSYISSSGSTIYYADSVKGRFTISRDNAKNSLYLQMNSLRAEDTAVYYCARHSWNDAFDVWGQGTLVTVSS
VL: not shown
B5: 1245_P01_G09 (antibody, V domains shown)
VH: QVQLQQSGPGLVKPSQTLSLTCAISGDSVSSNSAAWNWIRQSPSRGLEWLGRTYYGSKWYNEYALSVKSRIIINPDTSKNQFSLQLNSVTPEDTAVYYCARDYYYSMDVWGQGTLVTVSS
VL: B3 VL with D70E, T74A, E81D, L96V, G100Q
B6: 1245_P01_E07 (antibody, V domains shown)
VH: B4 VH with H99V, S100D, W101Y, N102A, V107I
VL: DIQMTQSPSSLSASVGDRVTIACRAGQSIGTYLNWYQQKPGKAPKLLIYVASSLQSGVPSRFSGSGSGTEFTLTISSLQPEDFATYYCQQSYSTLLTFGRGTKVEIK

What follows are binders tested against Vδ1 chain-containing γδ TCR on γδ T cells (assay: cell-based or functional assay).

In order of falling “Killing assay (EC50 µg/ml - 2 or 3 donors)” value:
1. B2  0.1 µg/mL
2. B6  0.06 µg/mL
3. B1  0.02 µg/mL

In order of rising “T cell degranulation (EC50 µg/ml - 3 donors)” value:
1. B4  0.001 µg/mL
2. B5  0.001 µg/mL
3. B2  0.002 µg/mL
4. B3  0.005 µg/mL
